According to patent publication US20090175790A1:

Biological target: WT HCN1 (mHCN1) (mouse (mHCN1)) (UniProt O88704)
Experiment: cell-based or functional assay

Sequence of UniProt O88704 (O88704 whole entry): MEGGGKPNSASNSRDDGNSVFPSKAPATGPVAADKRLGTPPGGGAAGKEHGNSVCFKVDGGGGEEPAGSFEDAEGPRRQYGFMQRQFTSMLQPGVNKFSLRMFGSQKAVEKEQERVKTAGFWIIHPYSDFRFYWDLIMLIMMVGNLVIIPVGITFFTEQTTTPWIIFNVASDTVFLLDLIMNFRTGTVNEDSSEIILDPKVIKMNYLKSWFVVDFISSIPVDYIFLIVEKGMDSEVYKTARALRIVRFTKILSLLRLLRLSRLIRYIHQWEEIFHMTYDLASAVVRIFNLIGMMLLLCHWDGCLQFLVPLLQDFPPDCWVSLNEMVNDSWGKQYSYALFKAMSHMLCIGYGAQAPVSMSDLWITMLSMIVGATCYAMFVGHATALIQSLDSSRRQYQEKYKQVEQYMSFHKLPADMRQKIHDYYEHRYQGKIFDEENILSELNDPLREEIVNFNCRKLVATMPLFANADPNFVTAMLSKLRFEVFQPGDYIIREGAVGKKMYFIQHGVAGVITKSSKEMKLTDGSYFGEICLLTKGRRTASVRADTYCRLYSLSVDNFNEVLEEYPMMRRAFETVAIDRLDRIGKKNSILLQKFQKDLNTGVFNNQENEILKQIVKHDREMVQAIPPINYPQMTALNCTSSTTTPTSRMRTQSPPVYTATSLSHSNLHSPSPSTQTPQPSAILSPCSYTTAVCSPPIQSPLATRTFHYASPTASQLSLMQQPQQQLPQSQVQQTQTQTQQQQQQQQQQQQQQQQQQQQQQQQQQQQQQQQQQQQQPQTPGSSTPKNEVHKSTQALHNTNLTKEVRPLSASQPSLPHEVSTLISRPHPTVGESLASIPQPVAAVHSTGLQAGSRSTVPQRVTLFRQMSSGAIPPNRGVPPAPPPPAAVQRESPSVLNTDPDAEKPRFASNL

current reduction, WTHCN1:HCN1-AAA cRNA ratio 1:1 (total 25 ng), Xenopus oocytes (% current reduction): 91.7
current reduction, WTHCN1:HCN1-AAA cRNA ratio 1:2 (total 25 ng), Xenopus oocytes (% current reduction): 97.9
current reduction, WTHCN1:HCN1-AAA cRNA ratio 2:1 (total 25 ng), Xenopus oocytes (% current reduction): 78.7
current reduction, WTHCN1:HCN1-AAA cRNA ratio 3:1 (total 25 ng), Xenopus oocytes (% current reduction): 68.3
current reduction, WTHCN1:HCN1-AAA cRNA ratio 4:1 (total 25 ng), Xenopus oocytes (% current reduction): 55.2
whole-cell current at -140 mV in Xenopus oocytes, co-injection of 50 nL WT HCN1 and 50 nL HCN1-AAA cRNA against WT HCN1 alone (current reduction): 85.2%
Substance: HCN1-AAA (mHCN1 with the triple mutation GYG365-367AAA) (from UniProt O88704 1-910)
